Consider one substance from patent publication US20220143024A1, “METHODS OF USING IMIPRIDONES” (Board of Regents, The University of Texas System, priority 2019, published 2022).

In one test the target is C8orf82 (human) (UniProt Q6P1X6). As to the kind of experiment: BioID-MS +ONC201.
The target in a further test is PDE12 (human) (UniProt Q6L8Q7). In words: BioID-MS +ONC201.
PDE12 (human), sequence (Q6L8Q7 43-609 limits assumed): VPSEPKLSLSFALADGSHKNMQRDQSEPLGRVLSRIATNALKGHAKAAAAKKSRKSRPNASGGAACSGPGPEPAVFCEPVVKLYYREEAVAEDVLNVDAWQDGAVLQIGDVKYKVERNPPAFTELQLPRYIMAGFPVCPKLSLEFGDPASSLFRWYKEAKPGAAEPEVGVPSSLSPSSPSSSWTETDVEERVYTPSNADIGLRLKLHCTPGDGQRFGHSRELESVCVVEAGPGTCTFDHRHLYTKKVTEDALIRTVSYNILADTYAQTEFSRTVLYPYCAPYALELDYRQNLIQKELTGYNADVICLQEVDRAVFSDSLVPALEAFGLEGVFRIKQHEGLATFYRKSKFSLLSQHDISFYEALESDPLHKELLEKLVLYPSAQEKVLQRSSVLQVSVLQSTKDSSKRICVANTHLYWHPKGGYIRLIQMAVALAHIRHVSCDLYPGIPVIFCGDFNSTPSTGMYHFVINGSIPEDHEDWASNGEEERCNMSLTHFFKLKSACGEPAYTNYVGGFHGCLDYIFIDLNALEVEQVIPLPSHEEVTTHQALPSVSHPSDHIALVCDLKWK

C8orf82 (human), sequence (Q6P1X6 whole entry): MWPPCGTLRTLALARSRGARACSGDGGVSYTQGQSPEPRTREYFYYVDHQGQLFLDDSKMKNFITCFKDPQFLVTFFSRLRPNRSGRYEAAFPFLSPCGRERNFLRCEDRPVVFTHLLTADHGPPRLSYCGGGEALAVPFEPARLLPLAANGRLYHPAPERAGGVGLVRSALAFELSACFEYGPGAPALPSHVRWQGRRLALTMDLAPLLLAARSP

For the substance “FlagBirA-ClpP (WT) (from UniProt P06709 1-321; Q16740 57-277) (enzyme)”, the Log2 Fold change (vs control) in the test with C8orf82 (human) was -1.19 log2; in the test with PDE12 (human) it was -5.78 log2.
